Data as given in patent US20080095824A1, “Delivery of drugs from sustained release devices implanted in myocardial tissue or in the pericardial space” (Durect Corporation, priority 2001, published 2008).
Where two headings read alike, the source gives them in different places.

Tests used:
[1] = rat, in vivo
Protocol: (§1) Minipumps, filled with solutions of the substances to be tested, were primed in saline at 37° C. at least 4 hours, prior to connection to the catheter. Before installing pumps, pericardial fluid and orbital sinus blood was sampled, to serve as blanks. 7 days after pump installment, rats were sacrificed by exsanguination under pentobarbitone and pericardial fluid and blood collected. To check for possible loss of substances during infusion, remaining pump contents were analyzed. […] Doses were chosen to achieve concentrations that were readily measurable but without pharmacological effects (risk of bleeding in the case of heparin); similar doses were applied systemically and intrapericardially to be able to make a good comparison between the two routes of administration. Solvent was PBS, except for Texas Red FGF-2 and cortisol which were dissolved in a 10 mg/ml solution of RSA in PBS.

[2] = Time course of infusion into the pericardial space; format: in vivo, male Wistar rats; conditions: for plasma concentration over time: intrapericardial infusion, 7-day period (bFGF: day 3 through day 7)
Protocol: Substances were administered to the pericardial space of male Wistar rats weighing 250-300 grams by infusion via catheter for 1 week using an Alzet™ osmotic minipump at a volume rate of about 1 μl/hour. Blood and pericardial fluid samples were taken at various time points and the concentration of administered substances was measured fluorimetrically (for fluorescently labeled compounds) or by HPLC (for steroids). Concentration of fluorescently labeled compounds is expressed as fluorescent units/ml fluid.

[3] = in vivo; conditions: rat
Protocol: as §1

[4] = In vitro release from SAIB depot of Example 2A; format: physicochemical; conditions: SAIB:benzyl benzoate:DL-PLG 83:12:5 depot, 500 μL in PBS pH 7.4, 37° C.
Protocol: In this embodiment sotalol (an anti-arrhythmic) is delivered from a depot comprising sucrose acetate isobutyrate (SAIB). A formulation is prepared by mixing SAIB (Eastman Chemical Co.) and benzyl benzoate (Aldrich Chemical Co.) and ploy (DL-lactide-co-glycolide) (DL-PLG) or DL-poly(lactide) (DLPL) in a ratio of 83:12:5 (weight basis) and stirring until a homogeneous mixture is achieved. 10 μg of sotalol is added to 500 μL of the SAIB:benzyl benzoate:DLPLG formulation.
The final depot formulation is prepared by passing the mixture repeatedly between a pair of 5 ml syringes equipped with needles. Multiple passes are performed until a solution is achieved. The final concentration of sotalol in the depot is 0.02 μg/ul.
To determine, in vitro, the release of […] from the formulation, 500 μL of the depot is placed in 750 μL of dissolution buffer (PBS, 0.01 M, pH 7.4 with sodium azide) in a 1.5 mL Eppendorf microcentrifuge tube. The formulations are incubated at 37° C. with no agitation. The entire dissolution buffer is removed and replaced with fresh buffer at the desired sampling times (0.25, 0.5, 1, 2, 3, 4, 5, 6, 24 hr and daily thereafter). The samples are assayed for protein concentration by ELISA. The release rate of drug from this depot is about 0.3 μg per day.

[5] = Pharmacokinetics after intrapericardial or intra-arterial bolus injection; format: in vivo, rats; conditions: mean ± SE
Protocol: Immediately after implantation of the pericardial catheter, rats (still under anesthesia) were provided either with a catheter in the right femoral artery essentially as described (Smits et al., 1982). Rats were allowed to recover at least 2 days before experimentation> One hour before start of the experiment, 20 μl pericardial fluid was withdrawn using a Hamilton 1705 (Hamilton Bonaduz, Bonaduz, Switzerland) syringe and 50 μl of saline were injected into pericardial space to check the integrity of the pericardial catheter. Injections of volumes up to 0.2 ml were previously shown to be without hemodynamic effects (Veelken et al., 1990). Blood (0.15-0.25 ml) was collected in a syringe, containing a minimal volume of heparin (Organon Teknika, Boxtel, the Netherlands). Pericardial fluid was diluted 10 times in PBS and the blood was centrifuged for 20 minutes at 3500 rpm to obtain plasma. These samples served as blanks for later analyses. Experiments in which substances were applied intrapericardially were started by a 50 μl bolus injection of the test substances into pericardial space, followed by 20 μl saline to flush the catheter. If substances were applied systemically, experiments were started by a 100 μl bolus injection of the substances and subsequent injection of 300 μl saline into the femoral artery catheter. FITC rat IgG, (10 mg/ml), Texas Red RSA (10 mg/ml), and FITC heparin (1 mg/ml) were dissolved in PBS.
Pericardial fluid (20 μl) and blood samples were taken at various time points after injection. To substitute withdrawn pericardial fluid, 20 μl of saline was injected into pericardial space immediately after sampling. After every sample, the femoral artery catheter was flushed with 0.3 to 0.4 ml saline and filled with heparinized (5-10 IU/ml) saline. Plasma and pericardial fluid samples were stored at −20° C. until analysis.
Data were standardized for bodyweights. Pharmacokinetic analysis of the data for each animal was conducted using the GPAD (GraphPAD Software, San Diego, Calif.) software package. Data were fitted to the exponential equation Ct=A.e^−αt+B. e^−βt of one-(i.e. A is fixed at 0) and two compartment models. Fits were compared using F-tests and data were log transformed for model judgement.

[6] = 7-day intrapericardial infusion (bFGF: days 3 to 7)
[7] = pericardial fluid after intrapericardial bolus injection
[8] = plasma after intra-arterial bolus injection

Compound	ratio of concentration in pericardial fluid to concentration in plasma [2, 6]	plasma concentration over time [2]	Peric/plasma ratio [1]	Peric/plasma ratio ([1]; iv)	Cl (clearance, Dose/AUC) [5, 7]	Vc (initial central compartment volume) [5, 7]	t1/2α [5, 7]	t1/2β [5, 7]	Cl (clearance, Dose/AUC) [5, 8]	Vc (initial central compartment volume) [5, 8]	t1/2β [5, 8]	further results
C[C@]12CCC(=O)C=C1CC[C@@H]1[C@@H]2[C@@H](O)C[C@@]2(C)[C@H]1CC[C@]2(O)C(=O)CO [Cortisol]	12-50	remained at a constant, low level	–	–	–	–	–	–	–	–	–	Peric. Fluid concentration ([1]; 7 days): 1.59 ± 0.44; Plasma concentration ([1]; 7 days): 0.11 ± 0.03; Kp ([2]; male, Wistar, rat, pericardial fluid and plasma, other: intrapericardial infusion, 7-day intrapericardial infusion (bFGF: days 3 to 7), read-out: ratio of concentration in pericardial fluid to concentration in plasma): 12 to 52; Kp at 7 days ([3]; Peric/plasma ratio): 14.4 ± 0.55; Kp at 7 days ([3]; concentrations in plasma lower than in pericardial fluid): ≥ 7
CC(C)NCC(O)COc1cccc2ccccc12 (centres unmarked) [propranolol]	–	–	–	–	–	–	–	–	–	–	–	release rate of drug from depot [4]: about 0.3 μg per day
Cortisol carbonic acid	–	–	–	–	–	–	–	–	–	–	–	clearance derived from steady-state concentration (infusion dose rate/steady state concentration) [1]: 30.8 ± 3.52 µL/kg/min
Texas Red FGF-2: Texas Red-labelled fibroblast growth factor-2 (basic FGF)	2-10	remained at a low level	6.85 ± 1.61 (4)	1.01 ± 0.38 (2)	8.05 ± 0.33 µL/min/kg	497 ± 70 µL/kg	17.3 ± 5.5 min	102 ± 19 min	84.2 ± 10.3 µL/min/kg	39990 ± 923 µL/kg	338 ± 31 min	concentration in the pericardial fluid over time ([2]; between day 3 and day 7 after the start of infusion): rose gradually
Texas Red RSA: Texas Red-labelled rat serum albumin	9-15	remained at a constant, low level	8.11 ± 2.60 (4)	0.98 ± 0.26 (4)	3.72 ± 0.90 µL/min/kg	892 ± 207 µL/kg	46.8 ± 14 min	589 ± 133 min	40.5 ± 2.76 µL/min/kg	34734 ± 1761 µL/kg	1132 ± 300 min	t1/2α [5, 8]: 89 ± 14.8 min; concentration in the pericardial fluid ([2]; day 1 after the start of intrapericardial infusion): about 375 FU/ml; concentration in the pericardial fluid ([2]; day 3, remained at this level through day 7): about 190 FU/ml
